Reference: US20240091361A1, “T CELL RECEPTORS TARGETING RAS MUTATIONS AND USES THEREOF” (MEMORIAL SLOAN-KETTERING CANCER CENTER, priority 2021, published 2024)

Legend:
[1] = target: T1, INO80 peptide on HLA-A*11:01 (human); test: cytokine release
T1 peptide: SSLAPDSLVR

[2] = target: T2, FRPD1 peptide on HLA-A*11:01 (human); test: cytokine release
T2 peptide: KVAAADGPAR

[3] = target: T3, KRAS wild type (10-mer) peptide on HLA-A*11:01 (human); test: cytokine release
T3 peptide: VVVGAGGVGK

[4] = target: T4, ELP2 peptide on HLA-A*11:01 (human); test: cytokine release
T4 peptide: VSAAADSAVR

[5] = target: T5, TUTLA (also listed as SEQ ID NO 134) peptide on HLA-A*11:01 (human); test: cytokine release
T5 peptide: ISQGADGRGK

[6] = target: T6, PRP4 peptide on HLA-A*11:01 (human); test: cytokine release
T6 peptide: ASCAADGSVK

[7] = target: T7, GEM (also listed as SEQ ID NOs 82, 106, 130, 141) peptide on HLA-A*11:01 (human); test: cytokine release
T7 peptide: AVFGAGGVGK

[8] = target: T8, DCAF7 peptide on HLA-A*11:01 (human); test: cytokine release
T8 peptide: ASVGADGSVR

[9] = target: T9, FRPD4 peptide on HLA-A*11:01 (human); test: cytokine release
T9 peptide: KSKLADGEGK

[10] = target: T10, KI26A peptide on HLA-A*11:01 (human); test: cytokine release
T10 peptide: PVAGPDGLSK

[11] = target: T11, TAF6 peptide on HLA-A*11:01 (human); test: cytokine release
T11 peptide: GATTADGKGK

[12] = target: T12, KRAS G12D (10-mer; the same sequence in NRAS G12D and HRAS G12D) peptide on HLA-A*11:01 (human); test: multimer staining
T12 peptide: VVVGADGVGK

B1: TCR 5 (TCR, V domains shown)
Valpha: GEDVEQSLFLSVREGDSSVINCTYTDSSSTYLYWYKQEPGAGLQLLTYIFSNMDMKQDQRLTVLLNKKDKHLSLRIADTQTGDSAIYFCAERDAGNNRKLIWGLGTSLAVNP
Vbeta: GAGVSQSPRYKVAKRGQDVALRCDPISGHVSLFWYQQALGQGPEFLTYFQNEAQLDKSGLPSDRFFAERPEGSVSTLKIQRTQQEDSAVYLCASSLEGGDTQYFGPGTRLTVL
B1: no recognition [1]; no recognition [2]; no recognition [3]. B1: no recognition [4]; no recognition [5]; no recognition [6]. B1: no recognition [7]; no recognition [8]; no recognition [9]. B1: no recognition [10]; no recognition [11]; recognises [12].
